# Measurements from patent publication US20160145343A1 (UNIVERSITY OF PITTSBURGH OF THE COMMONWEALTH SYSTEM OF …, published 2016).
# Tests used:
# [1] = target: T1, MUC1 on MUC1+ human cancer cell lines and tumor tissue (abnormal, e.g. hypoglycosylated, tumor MUC1) (human, UniProt P15941 24-1255); experiment: flow cytometry, MCF-7 cells
# T1 construct: the MUC1 of each cell line or tissue (number of repeats, glycoform) is not specified; The cell line or tissue is named under assay; also called MUC1 on HPAF, MCF-7, BT-20, SKBR-3, PANC-1, MS+MUC1 cells; MUC1 on colon and pancreatic tumor samples
# Description: (§1) The antibodies were further characterized for their surface binding to MUC1-expressing human cancer cell lines HPAF (pancreatic), MCF-7 (breast), BT-20 (breast), PANC-1 (pancreatic), and MS (breast) cell lines that express very low levels of MUC1 and was transfected with MUC1 cDNA (MS+MUC1). MCF-10A, a human nontransformed mammary epithelial cell line that expresses normal MUC1, was used as a predicted negative control for tumor MUC1 (hypoglycosylated MUC1)-specific staining Cells were grown attached to tissue culture plates, trypsinized, washed with PBS and 1% FBS and stained with each antibody for 30 minutes on ice. Cells were then washed 2 times with PBS and 1% FBS and stained with appropriate allophycocyanin (APC)-labeled secondary antibodies. Cells were washed again 2 times with PBS and 1% FBS and then analyzed by flow cytometry. Thirty-thousand events were collected for each sample and gated for viability by forward and side scatter. Live cells were then gated for APC+ staining as compared to an appropriate secondary antibody only control.
# [2] = target: T1, MUC1 on MUC1+ human cancer cell lines …; experiment: flow cytometry, PANC-1 cells
# Description: as §1
# [3] = target: T1, MUC1 on MUC1+ human cancer cell lines …; experiment: flow cytometry, SKBR-3 cells
# Description: as §1
# [4] = target: T1, MUC1 on MUC1+ human cancer cell lines …; experiment: flow cytometry, HPAF cells
# Description: as §1
# [5] = target: T1, MUC1 on MUC1+ human cancer cell lines …; experiment: flow cytometry, BT20 cells
# Description: as §1
# [6] = target: T1, MUC1 on MUC1+ human cancer cell lines …; experiment: flow cytometry, MS+MUC1 cells
# Description: as §1
# [7] = target: T1, MUC1 on MUC1+ human cancer cell lines …; experiment: immunohistochemistry, colon tissue microarray, malignant samples
# Description: (§2) Secondary antibodies alone were used as negative controls. Following staining, the microarrays were analyzed using CELLPROFILER cell image analysis software (Broad Institute).
# [8] = target: T1, MUC1 on MUC1+ human cancer cell lines …; experiment: immunohistochemistry, colon tissue microarray, benign samples
# Description: as §2
Binder,percentage of APC+ stained cells [1],percentage of APC+ stained cells [2],percentage of APC+ stained cells [3],percentage of APC+ stained cells [4],percentage of APC+ stained cells [5],percentage of APC+ stained cells [6],MUC1+ samples stained [7],MUC1+ samples stained [8]
"M3 (antibody, human IgG1, lambda, V domains shown, Human IgG) VH: QLQLQESGPGLVKPSETLSLTCTVSGGSISSSSYYWGWIRQPPGKGLEWIGSIYYSGSTHYNPSLKSRVTISVDTSKNQFSLKLRSVTAADTAVYYCARGVVEVRGNHYYYYYMDVWGKGTTVTVSS VL: QSVLTQPPSVSGAPGQRVTISCTGSSSNIGAGYDVHWYQQLPGTAPKLLIYGNSYRPSGVPDRFSGSKSGTSASLAITGLQAEDEADYYCQSYDSSLSGSGVFGGGTKLTVLG",79.6%,1.55%,5.71%,42.1%,14.8%,22%,,
"M22 (antibody, human IgG1, kappa, V domains shown, Human IgG) VH: EVQLVESGGGLVQPGGSLRLSCAASGFTVSSNYMSWVRQAPGKGLEWVSVIYSGGTTYYADSVKGRFTISRHNSKNTLYLQMNSLRAEDTAVYYCARDHDPDYGGYYMDVWGKGTTVTVSS VL: DVVMTQSPLSLPVTLGQPASISCRSSQSLVYSDGNTYLNWFQQRPGQSPRRLIYQVSNRDSGVPDRFSGSGSGTDFTLKIGRVEAEDVGVYFCMQGTHWPWTFGQGTKVEIKR",5.68%,0.7%,1.34%,2.99%,3.39%,5.78%,,
"M20 (antibody, human IgG1, kappa, V domains shown, Human IgG) VH: EVQLVESGGGLVQPGGSLRLSCAASGFTFSSYWMHWVRQAPGKGLVWVSHINSDGSSTSYADSVKGRFTISRDNAKNTLYLQMNSLRAEDTAVYYCARELADWGQGTLVTVSS VL: DVVMTQSPLSLPVTLGQPASISCRSSQSLVYSDGNTYLNWFQQRPGQSPRRLIYQVSNRDSGVPDRFSGSGSGTDFTLKIGRVEAEDVGVYFCMQGTHWPWTFGQGTKVEIKR",29.2%,0.39%,1.91%,4.36%,9.86%,6.32%,,
"M21 (antibody, human IgG1, kappa, V domains shown, Human IgG) VH: EVQLVESGGGLVQPGGSLRLSCAASGFTVSSNYMSWVRQAPGKGLEWVSVIYSGGSTYYADSVKGRFTISRDNSKNTLYLQMNSLRAEDTAVYYCARDQEHYFDGSGYYVDYWGQGTLVTVSS VL: DVVMTQSPLSLPVTLGQPASISCRSSQSLVYSDGNTYLNWFQQRPGQSPRRLIYQVSNRDSGVPDRFSGSGSGTDFTLKIGRVEAEDVGVYFCMQGTHWPWTFGQGTKVEIKR",5%,0.75%,0.99%,2.6%,4.06%,4.41%,,
"M7 (antibody, human IgG1, kappa, V domains shown, Human IgG) VH: EVQLVESGGGLVQPGGSLRLSCAASGFTVSSNYMSWVRQAPGKGLEWVSVIYSGGSTYYADSVKGRFTISRDNSKNTLYLQMNSLRAEDTAVYYCARGSTNTYYYDSSGHPWGQGTMVTVSS VL: DIVMTQSPLSLPATPGEPASISCRSSQSLLHSNGYTYLDWYLQKPGQSPQVLIYLASNRASGVPDRFSGSGSGTNFTLKISRVEAEDVGLFYCMQALQTPQTFGQGTKLEIKR",83.5%,0.41%,1.65%,51.5%,12.2%,22.4%,,
"M14 (antibody, human IgG1, kappa, V domains shown) VH: QVQLVESGGGLVKPGGSLRLSCAASGFTFSDYYMSWIRQAPGKGLEWVSYISSSGTTKYYADSVKGRFTISRDNAKNSLYLQMNSLRAEDTAVYYCVRENLGYCSGGSCFYYYYMDVWGKGTTVTVSS VL: not shown",20.8%,55.2%,22.3%,6.81%,22.9%,28.4%,56 of 114 MUC1+ malignant samples,2 of 3 MUC1+ benign samples
"M16 (antibody, human IgG1, kappa, V domains shown, Human IgG) VH: QVQLVESGGGLVKPGGSLRLSCAASGFTFSDYYMSWIRQAPGKGLEWVSYISSSGTTKYYADSVKGRFTISRDNAKNSLYLQMNSLRAEDTAVYYCVRENLGYCSGGSCFYYYYMDVWGKGTTVTVSS VL: not shown",18.3%,0.76%,2.68%,5.93%,5.17%,7.03%,,
"M23 (antibody, human IgG1, kappa, V domains shown) VH: QVQLVESGGGLVKPGGSLRLSCAASGFTFSDYYMSWIRQAPGKGLEWVSYISSSGTTKYYADSVKGRFTISRDNAKNSLYLQMNSLRAEDTAVYYCVRENIGYCTGGNCFYYYYMDVWGKGTTVTVSS VL: not shown",16.1%,45.1%,18.6%,5.71%,23%,33.8%,76 of 114 MUC1+ malignant samples,2 of 3 MUC1+ benign samples
